Assay results from US20040018971A1 (published 2004).

Assays:
[1] = molecular target: HLA-B*0702 (human); test: competition with 125I probe peptide, purified HLA
[2] = molecular target: HLA-B*5101 (human); test: competition with 125I probe peptide, purified HLA
[3] = molecular target: HLA-B*5301 (human); test: competition with 125I probe peptide, purified HLA
[4] = molecular target: HLA-B*5401 (human); test: competition with 125I probe peptide, purified HLA
[5] = molecular target: T1, HLA-A*0201 (human); test: competition with 125I-labelled standard peptide 941.01 for purified HLA, gel filtration
T1 construct: also called HLA-A2.1

[6] = molecular target: T2, HLA-A*0201 (human); test: competitive inhibition of 125I-labelled standard peptide binding to purified HLA, gel filtration
T2 construct: also called HLA-A2.1

[7] = molecular target: T3, HLA-A*0201 (human); test: inhibition of 125I-labelled standard peptide binding to purified HLA, gel filtration; ratio = IC50 of standard / IC50 of test peptide
T3 construct: also called HLA-A2.1

[8] = molecular target: HLA-B*0702 (human); test: competition vs 125I-labelled probe peptide, purified HLA, gel filtration
[9] = molecular target: HLA-B*5101 (human); test: as above
[10] = molecular target: HLA-B*5301 (human); test: as above
[11] = molecular target: HLA-B*5401 (human); test: as above
[12] = molecular target: HLA-B*3501 (human); test: competition with 125I probe peptide, purified HLA

Q: FPGGLRELQI (analog peptide) [Her2/neu.133.F1I10] was tested. Which IC50 [1] did it give?
A: 306 nM

Q: And the IC50 [2]?
A: 1770 nM

Q: What about the IC50 [3] of the same binder?
A: 310 nM

Q: And the IC50 [4]?
A: 476 nM

Q: With AALCRWGLLL (also called Her2/neu.4 (10-mer)) [HER2/neu peptide, position 4, 10 amino acids] as the binder, how does the relative binding ratio [5] read?
A: 0.001 ratio (IC50 of standard peptide / IC50 of test peptide)

Q: For PAARPAGATL (Synthetic peptide) [HER2/neu A02 supermotif peptide, position 1158, 10 amino acids], which “relative binding ratio (IC50 of standard peptide / IC50 of test peptide)” value [6] is on record?
A: 0.0001 ratio

Q: How did the “relative binding ratio (IC50 of standard peptide / IC50 of test peptide)” value [6] turn out when PAEQRASPL (Synthetic peptide) [HER2/neu A02 supermotif peptide, position 643, 9 amino acids] was run?
A: 0.0001 ratio

Q: For SAVVGILLVV [HER2/neu peptide, position 656, 10 amino acids], which relative binding ratio [7] is on record?
A: 0.0009 ratio to standard peptide

Q: FPMCKGSRCI (analog peptide) [Her2/neu.196.F1] was tested. Which IC50 [1] did it give?
A: 183 nM

Q: And the IC50 [2]?
A: 500 nM

Q: And the IC50 [3]?
A: 6640 nM

Q: And the IC50 [4]?
A: 303 nM

Q: How did the relative binding ratio [7] turn out when RLPQPPICT [HER2/neu peptide, position 940, 9 amino acids] was run?
A: 0.0002 ratio to standard peptide

Q: With PAFSPAFDNL (Synthetic peptide) [HER2/neu A02 supermotif peptide, position 1211, 10 amino acids] as the binder, how does the “relative binding ratio (IC50 of standard peptide / IC50 of test peptide)” value [6] read?
A: 0.0001 ratio

Q: Which relative binding ratio [7] does the source give for SIISAVVGIL [HER2/neu peptide, position 653, 10 amino acids] here?
A: 0.0002 ratio to standard peptide

Q: MAGVGSPYV (Synthetic peptide) [HER2/neu A02 supermotif peptide, position 774, 9 amino acids] was tested. Which “relative binding ratio (IC50 of standard peptide / IC50 of test peptide)” value [6] did it give?
A: 0.0014 ratio

Q: For PASPETHLDM (Synthetic peptide) [HER2/neu A02 supermotif peptide, position 36, 10 amino acids], which “relative binding ratio (IC50 of standard peptide / IC50 of test peptide)” value [6] is on record?
A: 0.0001 ratio

Q: DLLEKGERL (also called Her2/neu.933 (9-mer)) [HER2/neu peptide, position 933, 9 amino acids] was tested. Which relative binding ratio [5] did it give?
A: 0.0002 ratio (IC50 of standard peptide / IC50 of test peptide)

Q: STDVGSCTLV [HER2/neu peptide, position 305, 10 amino acids] was tested. Which relative binding ratio [7] did it give?
A: 0.0001 ratio to standard peptide

B1: Her2/neu.1151.F1I9 (peptide)
peptide: FPREGPLPI
notes: 9-mer analog of the HER2/neu peptide starting at position 1151
Q: Which IC50 [8] does the source give for B1 here?
A: 0.3 nM

Q: What about the IC50 [9] of the same binder?
A: 14 nM

Q: And the IC50 [10]?
A: 2820 nM

Q: And the IC50 [11]?
A: 4 nM

Q: How did the relative binding ratio [5] turn out when CARVCYGLGM (also called Her2/neu.338 (10-mer)) [HER2/neu peptide, position 338, 10 amino acids] was run?
A: 0.0011 ratio (IC50 of standard peptide / IC50 of test peptide)

Q: TAENPEYLGL [HER2/neu peptide, position 1242, 10 amino acids] was tested. Which relative binding ratio [7] did it give?
A: 0.0001 ratio to standard peptide

Q: How did the “relative binding ratio (IC50 of standard peptide / IC50 of test peptide)” value [6] turn out when LVSEFSRM (Synthetic peptide) [HER2/neu A02 supermotif peptide, position 972, 8 amino acids] was run?
A: 0.0001 ratio

Q: How did the IC50 [1] turn out when FPLNNTTPI (analog peptide) [Her2/neu.121.F1I9] was run?
A: 1.6 nM

Q: And the IC50 [12]?
A: 200 nM

Q: What about the IC50 [2] of the same binder?
A: 13 nM

Q: What about the IC50 [3] of the same binder?
A: 52 nM

Q: What about the IC50 [4] of the same binder?
A: 1.6 nM

Q: How did the IC50 [1] turn out when FPLNNTTPV (analog peptide) [Her2/neu.121.F1] was run?
A: 0.2 nM

Q: What about the IC50 [12] of the same binder?
A: 40 nM

Q: What about the IC50 [2] of the same binder?
A: 7.1 nM

Q: What about the IC50 [3] of the same binder?
A: 1070 nM

Q: And the IC50 [4]?
A: 1.1 nM

Q: Which relative binding ratio [5] does the source give for DLAARNVLV (also called Her2/neu.845 (9-mer)) [HER2/neu peptide, position 845, 9 amino acids] here?
A: 0.0002 ratio (IC50 of standard peptide / IC50 of test peptide)

Q: How did the “relative binding ratio (IC50 of standard peptide / IC50 of test peptide)” value [6] turn out when NVLVKSPNHV (Synthetic peptide) [HER2/neu A02 supermotif peptide, position 850, 10 amino acids] was run?
A: 0.0001 ratio

Q: Which relative binding ratio [5] does the source give for DIQEVQGYV (also called Her2/neu.76 (9-mer)) [HER2/neu peptide, position 76, 9 amino acids] here?
A: 0.0001 ratio (IC50 of standard peptide / IC50 of test peptide)

Q: For RLVHRDLAA [HER2/neu peptide, position 840, 9 amino acids], which relative binding ratio [7] is on record?
A: 0.0001 ratio to standard peptide

Q: MARDPQRFV (Synthetic peptide) [HER2/neu A02 supermotif peptide, position 979, 9 amino acids] was tested. Which “relative binding ratio (IC50 of standard peptide / IC50 of test peptide)” value [6] did it give?
A: 0.0001 ratio

Q: With LVDAEEYLV (Synthetic peptide) [HER2/neu A02 supermotif peptide, position 1017, 9 amino acids] as the binder, how does the “relative binding ratio (IC50 of standard peptide / IC50 of test peptide)” value [6] read?
A: 0.003 ratio

Q: For FPTNASLSF (analog peptide) [Her2/neu.65.F1 (9-mer)], which IC50 [1] is on record?
A: 1.1 nM

Q: What about the IC50 [12] of the same binder?
A: 7.9 nM

Q: What about the IC50 [2] of the same binder?
A: 85 nM

Q: What about the IC50 [3] of the same binder?
A: 6.2 nM

Q: What about the IC50 [4] of the same binder?
A: 556 nM

Q: What does the source list for FPTNASLSI (analog peptide) [Her2/neu.65.F1I9]?
A: IC50 [1]: 4.6 nM; IC50 [12]: 300 nM; IC50 [2]: 8.7 nM; IC50 [3]: 14 nM; IC50 [4]: 2.8 nM

Q: With CVARCPSGV (also called Her2/neu.596 (9-mer)) [HER2/neu peptide, position 596, 9 amino acids] as the binder, how does the relative binding ratio [5] read?
A: 0.0004 ratio (IC50 of standard peptide / IC50 of test peptide)

Q: How did the “relative binding ratio (IC50 of standard peptide / IC50 of test peptide)” value [6] turn out when NASLSFLQDI (Synthetic peptide) [HER2/neu A02 supermotif peptide, position 68, 10 amino acids] was run?
A: 0.0001 ratio
